The assay addresses recombinant RBD derived from SARS-CoV-2 (Sino Biological) (SARS-CoV-2, ancestral (Wuhan-Hu-1) …, UniProt P0DTC2). Description: ELISA. (ELISA stands for enzyme-linked immunosorbent assay.)

B1: B8-IgG1 (antibody, V domains shown)
VH: EVQLVQSGAEVKKPGSSVKVSCKASGGTFSNYGISWVRQAPGQGLEWMGRILPTFGTANSAQKFQGRVTITADESTGTAYMELRSLRSEDTAVYYCAKEGLAFLGYGMDVWGQGTTVTVSS
VL: EIVLTQSPGTLSLSPGERATLSCRASQSVSSYLAWYQQKPGQAPRLLIYDASNRATGIPARFIGSGSGTDFTLTISSLEPEDFAVYFCQQRSNWPLTFGGGTKVEIK
As to B1, the binding result is listed as “binds”.

B2: B8-dIgA2 (antibody, V domains shown)
VH: B1 VH
VL: B1 VL
As for B2, the binding result is recorded as “binds”.

B3: B8-dIgA1 (antibody, V domains shown)
VH: B1 VH
VL: B1 VL
For B3, the binding result is reported as “binds”.

B4: B8-mIgA2 (antibody, V domains shown)
VH: B1 VH
VL: B1 VL
B4: the binding result is “binds”.

B5: B8-mIgA1 (antibody, V domains shown)
VH: B1 VH
VL: B1 VL
Regarding B5, the binding result is “binds”.

For the origin of these results see paper doi:10.1101/2021.10.05.463282 (2021).
